How the values were obtained:
[1] = target: the molecule itself; assay: crystal structure; hanging drop, 0.2 M NaCl, 0.1 M Bis-Tris pH 5.5, 20–23% PEG 3350; apo crystals and crystals soaked with 10 mM MgCl2 and 10 mM nucleotide; two mtPAP molecules in the asymmetric unit
[2] = target: the molecule itself; assay: SEC; Superdex-200 elution profiles of WT and mutated mtPAP proteins

Row | Protein | binding result [2] | further results
1 | chicken mitochondrial poly(A) RNA polymerase, mature wild type (residues 37–568) (enzyme, Gallus gallus, UniProt F1NBW0 37-568, looked up, Expression construct pNIC28-BsaI; also called mtPAP; WT mtPAP; source: E. coli KRX/pRARE2, purified (HisTrap, TEV cleavage, HiTrap Heparin)) AGGAEETDAEVSARKKTFTEVQTERLEQADRSVLIKCPSKLNEKKLLQYLSSHGKIDNYFFFENRGIHALIEFSEKSSVASLQAVTGIPKAAEHHVVPYKSRLFTFTLKNPGSQAAEERPVKISPQSHIPVNELIPKLCHADSISSQMYILLNEYQLTEENIKLRYLACSLVRDFARAYFPDSTVKPFGSSVNTFGKLGCDVDMFLDFHDIQKHATKMKKGPFEMEYQMKRLPSERLATQKILSIIGDCLDNFGPGYSSVQKILNARCPLVKFSHQPTGFQCDLSVSNSIAIRCSELLYIYGCLDPRVRALVFSLRCWARVHGLTNSVPGTWITNFSLTMMIMFFLQKRSPPIIPTLDQLKELADEKDKHVIGGYDCSFVSDLSKIKPTKNTETLDELLCDFFQYFGNFDFRKNSLNLRKGKEVNKPESSPLYIWNPFEQDLNISKNVNQPQLEKFVAMARESAWILQKEDKTQQMINKEPWGLAAVLIPFGKSNPNTMKSRTKGIGSETIKSLLDSLKLSDANNLQKAVGK |  | stoichiometry N [1]: 2
2 | chicken mtPAP R272E mutant (enzyme, Gallus gallus, UniProt F1NBW0 37-568, looked up, mitochondrial poly(A) polymerase (mtPAP), Gallus gallus, residues 37-568, R272E) AGGAEETDAEVSARKKTFTEVQTERLEQADRSVLIKCPSKLNEKKLLQYLSSHGKIDNYFFFENRGIHALIEFSEKSSVASLQAVTGIPKAAEHHVVPYKSRLFTFTLKNPGSQAAEERPVKISPQSHIPVNELIPKLCHADSISSQMYILLNEYQLTEENIKLRYLACSLVRDFARAYFPDSTVKPFGSSVNTFGKLGCDVDMFLDFHDIQKHATKMKKGPFEMEYQMKRLPSEELATQKILSIIGDCLDNFGPGYSSVQKILNARCPLVKFSHQPTGFQCDLSVSNSIAIRCSELLYIYGCLDPRVRALVFSLRCWARVHGLTNSVPGTWITNFSLTMMIMFFLQKRSPPIIPTLDQLKELADEKDKHVIGGYDCSFVSDLSKIKPTKNTETLDELLCDFFQYFGNFDFRKNSLNLRKGKEVNKPESSPLYIWNPFEQDLNISKNVNQPQLEKFVAMARESAWILQKEDKTQQMINKEPWGLAAVLIPFGKSNPNTMKSRTKGIGSETIKSLLDSLKLSDANNLQKAVGK | binds | 
3 | chicken mtPAP triple mutant K76E, K80–81E (enzyme, Gallus gallus, UniProt F1NBW0 37-568, looked up, mitochondrial poly(A) polymerase (mtPAP), Gallus gallus, residues 37-568, charge-reversal triple mutant; The methods list K80–81E and K76E apart; the results call it a triple mutant) AGGAEETDAEVSARKKTFTEVQTERLEQADRSVLIKCPSELNEEELLQYLSSHGKIDNYFFFENRGIHALIEFSEKSSVASLQAVTGIPKAAEHHVVPYKSRLFTFTLKNPGSQAAEERPVKISPQSHIPVNELIPKLCHADSISSQMYILLNEYQLTEENIKLRYLACSLVRDFARAYFPDSTVKPFGSSVNTFGKLGCDVDMFLDFHDIQKHATKMKKGPFEMEYQMKRLPSERLATQKILSIIGDCLDNFGPGYSSVQKILNARCPLVKFSHQPTGFQCDLSVSNSIAIRCSELLYIYGCLDPRVRALVFSLRCWARVHGLTNSVPGTWITNFSLTMMIMFFLQKRSPPIIPTLDQLKELADEKDKHVIGGYDCSFVSDLSKIKPTKNTETLDELLCDFFQYFGNFDFRKNSLNLRKGKEVNKPESSPLYIWNPFEQDLNISKNVNQPQLEKFVAMARESAWILQKEDKTQQMINKEPWGLAAVLIPFGKSNPNTMKSRTKGIGSETIKSLLDSLKLSDANNLQKAVGK | binds | 
4 | chicken mtPAP N472D mutant (residues 37–568) (enzyme, Gallus gallus, UniProt F1NBW0 37-568, looked up, mitochondrial poly(A) polymerase (mtPAP), Gallus gallus, residues 37-568, N472D (counterpart of human N478D); Purified by the same procedure as the wild type; also called N472D mtPAP; SPAX4 N472D mtPAP mutant; source: E. coli KRX/pRARE2, purified (HisTrap, TEV cleavage, HiTrap Heparin)) AGGAEETDAEVSARKKTFTEVQTERLEQADRSVLIKCPSKLNEKKLLQYLSSHGKIDNYFFFENRGIHALIEFSEKSSVASLQAVTGIPKAAEHHVVPYKSRLFTFTLKNPGSQAAEERPVKISPQSHIPVNELIPKLCHADSISSQMYILLNEYQLTEENIKLRYLACSLVRDFARAYFPDSTVKPFGSSVNTFGKLGCDVDMFLDFHDIQKHATKMKKGPFEMEYQMKRLPSERLATQKILSIIGDCLDNFGPGYSSVQKILNARCPLVKFSHQPTGFQCDLSVSNSIAIRCSELLYIYGCLDPRVRALVFSLRCWARVHGLTNSVPGTWITNFSLTMMIMFFLQKRSPPIIPTLDQLKELADEKDKHVIGGYDCSFVSDLSKIKPTKNTETLDELLCDFFQYFGNFDFRKNSLNLRKGKEVNKPESSPLYIWDPFEQDLNISKNVNQPQLEKFVAMARESAWILQKEDKTQQMINKEPWGLAAVLIPFGKSNPNTMKSRTKGIGSETIKSLLDSLKLSDANNLQKAVGK |  | binding result [1]: binds
5 | chicken mtPAP K112E mutant (enzyme, Gallus gallus, UniProt F1NBW0 37-568, looked up, mitochondrial poly(A) polymerase (mtPAP), Gallus gallus, residues 37-568, K112E) AGGAEETDAEVSARKKTFTEVQTERLEQADRSVLIKCPSKLNEKKLLQYLSSHGKIDNYFFFENRGIHALIEFSEESSVASLQAVTGIPKAAEHHVVPYKSRLFTFTLKNPGSQAAEERPVKISPQSHIPVNELIPKLCHADSISSQMYILLNEYQLTEENIKLRYLACSLVRDFARAYFPDSTVKPFGSSVNTFGKLGCDVDMFLDFHDIQKHATKMKKGPFEMEYQMKRLPSERLATQKILSIIGDCLDNFGPGYSSVQKILNARCPLVKFSHQPTGFQCDLSVSNSIAIRCSELLYIYGCLDPRVRALVFSLRCWARVHGLTNSVPGTWITNFSLTMMIMFFLQKRSPPIIPTLDQLKELADEKDKHVIGGYDCSFVSDLSKIKPTKNTETLDELLCDFFQYFGNFDFRKNSLNLRKGKEVNKPESSPLYIWNPFEQDLNISKNVNQPQLEKFVAMARESAWILQKEDKTQQMINKEPWGLAAVLIPFGKSNPNTMKSRTKGIGSETIKSLLDSLKLSDANNLQKAVGK | binds | 

Source: publication PMC4605311, “Structure of mitochondrial poly(A) RNA polymerase reveals the structural basis for dimerization, ATP selectivity and the SPAX4 disease phenotype” (Nucleic Acids Research, 2015)
